Measured values as given in article PMC1964790, “An ectromelia virus profilin homolog interacts with cellular tropomyosin and viral A-type inclusion protein” (Virology Journal, 2007).

Target: the molecule itself
Experiment: SDS-PAGE with western blot

B1: His-tagged ectromelia virus strain Moscow gene 141 profilin homolog (ECTV-PH) (natural protein)
chain: MAAEWHKIIEDVSKNNKFEDAAIVDYKTKKNVLAAIPNRTFAKIIPGEVIALITNRNILKPRIGQKFFIVYTNSLMDENTYTMELLTGYAPVSPIVIARTHTALIFLMGKPTTSRREVYRTCRDYATNVRATGN
notes: also called ECTV-Moscow 141; His-ECTV-PH; not shown: His6, N-terminal, kept
  stoichiometry N: 2
